Measurements reported in US20230035659A1, “Compositions and Methods for TTR Gene Editing and Treating ATTR Amyloidosis Comprising a Corticosteroid or Use Thereof” (Intellia Therapeutics, Inc., priority 2019, published 2023).
Strand notation (5' to 3'): a small letter for the sugar, then the base; units joined by * are phosphorothioate-linked, units joined directly phosphodiester-linked; [ ] holds rarer units or linkages, { } end groups; capitals alone tell only the bases. m = 2'-O-methyl; r = 2'-OH (RNA)

Columns and labels:
TTR mRNA = TTR mRNA knockdown (quantitative PCR) in primary human hepatocytes treated with LNPs; type: cell-based; settings: PHH; LNP dose 300 ng mRNA cargo; gRNA:mRNA 1:2; 96 h; biological triplicates; vs untreated control
Method: In one experiment, PHH were cultured and treated with LNPs comprising Cas9 mRNA (SEQ ID NO:1) and a gRNA of interest (See FIG. 29, Table 36), as described in Example 4. The LNPs were prepared using the cross-flow procedure described above and purified and concentrated using PD-10 columns and Amicon centrifugal filter units, respectively. The LNPs were formulated with an N:P ratio of 6.0 and contained Lipid A, Cholesterol, DSPC, and PEG2k-DMG in a 50:38:9:2 molar ratio, respectively. The LNPs comprised a gRNA:mRNA ratio of 1:2, and the cells were treated at a dose of 300 ng (with respect to the amount of mRNA cargo delivered).
(§1) Ninety-six (96) hours following LNP treatment (with biological triplicates for each condition), mRNA was purified from PHH cells using the Dynabeads mRNA DIRECT Kit (ThermoFisher Scientific) according to the manufacturer's protocol. Reverse Transcription (RT) was performed with Maxima reverse transcriptase (ThermoFisher Scientific) and a poly-dT primer. The resulting cDNA was purified with Ampure XP Beads (Agencourt). For Quantitative PCR, 2% of the purified cDNA was amplified with Taqman Fast Advanced Mastermix and 3 Taqman probe sets, TTR (Assay ID: Hs00174914_m1), GAPDH (Assay ID: Hs02786624_g1), and PPIB (Assay ID: Hs00168719_m1). The assays were run on the QuantStudio 7 Flex Real Time PCR System according to the manufacturer's instructions (Life Technologies). Relative expression of TTR mRNA was calculated by normalizing to the endogenous controls (GAPDH and PPIB) individually, and then averaged.
The groups in FIG. 29 and Table 36 are identified by the gRNA ID used in each LNP preparation.
In a separate experiment, TTR mRNA knockdown was evaluated following treatment with LNPs comprising G000480, G000486, and G000502. The LNPs were formulated and PHH were cultured and treated with the LNPs, each as described in the experiment above in this Example with the exception that the cells were treated at a dose of 100 ng (with respect to the amount of mRNA cargo delivered).
as §1, with “(single treatment” for “(with biological triplicates”, “the High Capacity cDNA Reverse Transcription Kit” for “Maxima reverse transcriptase”, “according to the manufacturer's instructions.” for “and a poly-dT primer. The resulting cDNA was purified with Ampure XP Beads (Agencourt).”, “the” for “the purified”
The groups in FIG. 30 and Table 37 are identified by the gRNA ID used in each LNP preparation.

TTR = TTR editing in primary human hepatocytes treated with LNP formulated Spy Cas9 mRNA (SEQ ID NO: 2) and sgRNAs, 12.5 ng mRNA; type: cell-based; settings: LNP formulated Spy Cas9 mRNA (SEQ ID NO: 2) and sgRNA, 12.5 ng mRNA, 3.9 nM sgRNA, 72 hours
Procedure, shortened: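 Primary human hepatocytes plated 24 h, then treated with LNPs carrying Spy Cas9 mRNA and sgRNA (1:1 by weight), pre-incubated 5 min in medium with 6% cyno serum; value at 12.5 ng mRNA from an 8-point 2-fold series. Cells lysed 72 h later; percent editing as indel/substitution reads over total by amplicon NGS.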

B1: G000490: TTR sgRNA modified sequence, Human, SEQ ID NO: 97; guide sequence of CR003366 (nucleic acid)
guide: mA*mA*mA*rUrArGrArCrArCrCrArArArUrCrUrUrArCrGrUrUrUrUrArGrAmGmCmUmAmGmAmAmAmUmAmGmCrArArGrUrUrArArArArUrArArGrGrCrUrArGrUrCrCrGrUrUrArUrCrAmAmCmUmUmGmAmAmAmAmAmGmUmGmGmCmAmCmCmGmAmGmUmCmGmGmUmGmCmU*mU*mU*mU
- Avg % Knockdown (TTR mRNA) (TTR mRNA): 78.34%
- 12.5 ng mRNA, 3.9 nM sgRNA, Avg % Edit (TTR): 10.53%

B2: G000493: TTR sgRNA modified sequence, Human, SEQ ID NO: 100; guide sequence of CR003368 (nucleic acid)
guide: mA*mA*mG*rUrGrCrCrUrUrCrCrArGrUrArArGrArUrUrGrUrUrUrUrArGrAmGmCmUmAmGmAmAmAmUmAmGmCrArArGrUrUrArArArArUrArArGrGrCrUrArGrUrCrCrGrUrUrArUrCrAmAmCmUmUmGmAmAmAmAmAmGmUmGmGmCmAmCmCmGmAmGmUmCmGmGmUmGmCmU*mU*mU*mU
- Avg % Knockdown (TTR mRNA) (TTR mRNA): 87.53%
- 12.5 ng mRNA, 3.9 nM sgRNA, Avg % Edit (TTR): 7.33%

B3: G000481: TTR sgRNA modified sequence, Human, SEQ ID NO: 88; guide sequence of CR003345 (nucleic acid)
guide: UCUAGAACUUUGACCAUCAGGUUUUAGAGCUAGAAAUAGCAAGUUAAAAUAAGGCUAGUCCGUUAUCAACUUGAAAAAGUGGCACCGAGUCGGUGCUUUU
modifications: sugars from the 5' end m3 r25 m12 r28 m32, backbone not given here; further chemistry not fully specified
- Avg % Knockdown (TTR mRNA) (TTR mRNA): 91.39%
- 12.5 ng mRNA, 3.9 nM sgRNA, Avg % Edit (TTR): 24.37%

B4: G000567: TTR sgRNA modified sequence, Human, SEQ ID NO: 109; guide sequence of CR003352 (nucleic acid)
guide: mG*mA*mA*rArGrGrCrUrGrCrUrGrArUrGrArCrArCrCrGrUrUrUrUrArGrAmGmCmUmAmGmAmAmAmUmAmGmCrArArGrUrUrArArArArUrArArGrGrCrUrArGrUrCrCrGrUrUrArUrCrAmAmCmUmUmGmAmAmAmAmAmGmUmGmGmCmAmCmCmGmAmGmUmCmGmGmUmGmCmU*mU*mU*mU
- Avg % Knockdown (TTR mRNA) (TTR mRNA): 90.89%
- 12.5 ng mRNA, 3.9 nM sgRNA, Avg % Edit (TTR): 48.95%

B5: G000489: TTR sgRNA modified sequence, Human, SEQ ID NO: 96; guide sequence of CR003344 (nucleic acid)
guide: mU*mU*mU*rGrArCrCrArUrCrArGrArGrGrArCrArCrUrGrUrUrUrUrArGrAmGmCmUmAmGmAmAmAmUmAmGmCrArArGrUrUrArArArArUrArArGrGrCrUrArGrUrCrCrGrUrUrArUrCrAmAmCmUmUmGmAmAmAmAmAmGmUmGmGmCmAmCmCmGmAmGmUmCmGmGmUmGmCmU*mU*mU*mU
- Avg % Knockdown (TTR mRNA) (TTR mRNA): 91.85%
- 12.5 ng mRNA, 3.9 nM sgRNA, Avg % Edit (TTR): 16.85%

B6: G000572: TTR sgRNA modified sequence, Human, SEQ ID NO: 113; guide sequence of CR003385 (nucleic acid)
guide: mC*mC*mC*rCrUrArCrUrCrCrUrArUrUrCrCrArCrCrArGrUrUrUrUrArGrAmGmCmUmAmGmAmAmAmUmAmGmCrArArGrUrUrArArArArUrArArGrGrCrUrArGrUrCrCrGrUrUrArUrCrAmAmCmUmUmGmAmAmAmAmAmGmUmGmGmCmAmCmCmGmAmGmUmCmGmGmUmGmCmU*mU*mU*mU
- Avg % Knockdown (TTR mRNA) (TTR mRNA): 55.92%
- 12.5 ng mRNA, 3.9 nM sgRNA, Avg % Edit (TTR): 55.45%

B7: G000500: TTR sgRNA modified sequence, Human, SEQ ID NO: 107; guide sequence of CR003337 (nucleic acid)
guide: mC*mC*mA*rGrUrCrCrArGrCrArArGrGrCrArGrArGrGrGrUrUrUrUrArGrAmGmCmUmAmGmAmAmAmUmAmGmCrArArGrUrUrArArArArUrArArGrGrCrUrArGrUrCrCrGrUrUrArUrCrAmAmCmUmUmGmAmAmAmAmAmGmUmGmGmCmAmCmCmGmAmGmUmCmGmGmUmGmCmU*mU*mU*mU
- Avg % Knockdown (TTR mRNA) (TTR mRNA): 92.90%
- 12.5 ng mRNA, 3.9 nM sgRNA, Avg % Edit (TTR): 23.57%

B8: G000568: TTR sgRNA modified sequence, Human, SEQ ID NO: 110; guide sequence of CR003391 (nucleic acid)
guide: mG*mG*mC*rUrGrUrCrGrUrCrArCrCrArArUrCrCrCrArGrUrUrUrUrArGrAmGmCmUmAmGmAmAmAmUmAmGmCrArArGrUrUrArArArArUrArArGrGrCrUrArGrUrCrCrGrUrUrArUrCrAmAmCmUmUmGmAmAmAmAmAmGmUmGmGmCmAmCmCmGmAmGmUmCmGmGmUmGmCmU*mU*mU*mU
- Avg % Knockdown (TTR mRNA) (TTR mRNA): 53.44%
- 12.5 ng mRNA, 3.9 nM sgRNA, Avg % Edit (TTR): 54.60%
